The results in this text go back to publication PMC7859202, “A scaffold lncRNA shapes the mitosis to meiosis switch”.

Sequences and labels used below:
B1: U7GU7 (ssRNA)
RNA: UUUUUUUGUUUUUUU
B2: GCUUUUUGUUCG 12-mer (ssRNA)
RNA: GCUUUUUGUUCG
B3: U6GGU7 (ssRNA)
RNA: UUUUUUGGUUUUUUU
B4: poly-U15 (ssRNA)
RNA: UUUUUUUUUUUUUUU

The target of this data set is T1, RRM3Mei2 (Schizosaccharomyces pombe, UniProt P08965 579-750).
T1 sequence: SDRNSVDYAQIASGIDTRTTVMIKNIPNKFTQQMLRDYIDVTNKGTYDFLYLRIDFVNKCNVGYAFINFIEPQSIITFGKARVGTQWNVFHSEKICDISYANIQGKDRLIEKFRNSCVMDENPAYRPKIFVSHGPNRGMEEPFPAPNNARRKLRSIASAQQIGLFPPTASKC
As to the kind of experiment: ITC; ITC: 20 mM Tris-HCl pH 7.5, 200 mM NaCl, 5 mM 2-mercaptoethanol, 20 °C; N fixed to 1. To be noted: protein: recombinant; tags: GST-tag removed by 3C protease.
B1: the Kd – broadly, the equilibrium constant for the complex coming apart – is 145 ± 26 nM.
The same measure for B2: 555 ± 166 nM.
The same measure for B3: 435 ± 112 nM; for B4: 1430 ± 194 nM.
